Measured values taken from publication PMC8924211 (Nature Communications, 2022).
Where “and” joins values, the source holds several entries; their conditions need not be identical. Equal values may be shown once.

Legend:
GAL2R over GAL1R = conditions: cited from earlier work
Description: In contrast, L^4P contacts with equivalent ECL2 residues with weaker hydrophobicity (L169^ECL2, A170^ECL2, and L172^ECL2) in GAL2R (Fig. 3e, Supplementary Fig. 4b). The structural observation is coincident with our peptide truncation assay.

[1] = target: SNAP-GAL1R (wild type) (human) (UniProt P47211)
[2] = target: SNAP-GAL2R (wild type) (human) (UniProt O43603)
[3] = target: SNAP-GAL1R (wild type) (human) (UniProt P47211); assay: AlphaScreen or HTRF; competition: HEK293 cells with SNAP-GAL1R or SNAP-GAL2R labelled with SNAP-Lumi4-Tb; 50 nM galanin-A2 with increasing concentrations of unlabeled ligand, 1 h at room temperature; Ki by the Cheng-Prusoff equation
[4] = target: SNAP-GAL2R (wild type) (human) (UniProt O43603); assay: as above
[5] = target: SNAP-GAL2R (wild type) (human) (UniProt O43603); remark: listed apart in the source
[6] = target: SNAP-GAL2R (wild type) (human) (UniProt O43603); remark: listed apart in the source
[7] = target: T1, N-terminal-SNAP-tagged GAL2R, wild type (human, UniProt O43603 1-387, Lumi4-Tb on the SNAP tag); assay: AlphaScreen or HTRF; competition binding: HEK293 cells transfected with WT SNAP-tagged receptor and labelled with SNAP-Lumi4-Tb, incubated with 50 nM galanin-A2 and increasing concentrations of the unlabeled ligand, 1 h at room temperature; Ki from IC50 by the Cheng-Prusoff equation; conditions: one partner purified
T1 construct: also called SNAP-GAL2R; GAL2R WT; source: HEK293, transfected, on cells; not shown: SNAP tag, N-terminal, kept
T1 sequence (looked up): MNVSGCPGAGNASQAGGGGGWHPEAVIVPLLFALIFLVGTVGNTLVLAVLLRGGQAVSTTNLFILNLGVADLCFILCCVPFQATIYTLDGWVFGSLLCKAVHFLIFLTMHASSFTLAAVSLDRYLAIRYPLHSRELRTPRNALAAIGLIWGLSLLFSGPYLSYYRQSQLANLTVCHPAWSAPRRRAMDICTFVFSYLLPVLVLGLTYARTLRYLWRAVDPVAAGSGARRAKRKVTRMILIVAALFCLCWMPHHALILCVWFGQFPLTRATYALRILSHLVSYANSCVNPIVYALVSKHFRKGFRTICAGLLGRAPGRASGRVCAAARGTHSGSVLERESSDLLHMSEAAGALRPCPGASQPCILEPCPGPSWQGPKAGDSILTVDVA

[8] = target: T2, N-terminal-SNAP-tagged GAL1R, wild type (human, UniProt P47211 1-349, Lumi4-Tb on the SNAP tag); assay: as above; conditions: one partner purified
T2 construct: also called SNAP-GAL1R; GAL1R WT; source: HEK293, transfected, on cells; not shown: SNAP tag, N-terminal, kept
T2 sequence (looked up): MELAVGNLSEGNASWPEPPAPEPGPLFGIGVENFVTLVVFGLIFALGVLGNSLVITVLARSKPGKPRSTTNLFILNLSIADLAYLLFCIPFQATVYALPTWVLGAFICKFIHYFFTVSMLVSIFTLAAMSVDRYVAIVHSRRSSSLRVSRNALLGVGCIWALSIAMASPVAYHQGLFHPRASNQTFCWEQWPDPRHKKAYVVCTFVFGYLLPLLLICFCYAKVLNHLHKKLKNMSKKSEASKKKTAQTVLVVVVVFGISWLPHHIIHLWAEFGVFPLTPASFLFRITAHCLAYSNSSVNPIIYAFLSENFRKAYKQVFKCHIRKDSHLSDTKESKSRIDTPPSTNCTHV

## ARM1896: galanin segment 2-11 (WTLNSAGYLL; Galanin; UniProt P22466 34-43, looked up, fragment)
GAL2R over GAL1R
  selectivity for GAL1R: low selectivity

## G1-truncated galanin (2-16) (peptide)
[1]
  calcium assay EC50 (peptide on WT receptor; HEK293/Gα16 cells): 3160 nM and 3440 nM and 3340 nM
[2]
  calcium assay EC50 (peptide on WT receptor; HEK293/Gα16 cells): 50.1 nM and 12.3 nM
[3]
  Ki: > 10000 nM
[4]
  Ki: 80.1 nM and 42.6 nM and 27 nM

## GALP (1–60): galanin-related peptide, galanin homologue; amino acids 9–21 identical to first 13 amino acids of galanin (APAHRGRGGWTLNSAGYLLGPVLHLPQMGDQDGKRETALEILDLWKAIDGLPYSHPPQPS; Galanin-like peptide; UniProt Q9UBC7 25-84, looked up)
GAL2R over GAL1R
  affinity for GAL2R versus GAL1R: higher affinity for GAL2R over GAL1R

## galanin (1-13) (peptide)
[1]
  calcium assay EC50 (peptide on WT receptor; HEK293/Gα16 cells): 324 nM and 328 nM and 268 nM
[2]
  calcium assay EC50 (peptide on WT receptor; HEK293/Gα16 cells): 12.8 nM and 14.6 nM and 69 nM
[3]
  Ki: 343 nM and 409 nM and 314 nM
[4]
  Ki: 41.4 nM and 11.1 nM and 17.8 nM

## galanin (1-16) (peptide)
[2]
  calcium assay EC50 (peptide on WT receptor; HEK293/Gα16 cells): 23.5 nM and 12.5 nM and 12.6 nM
[4]
  Ki: 20.1 nM and 22.6 nM and 15.6 nM

## galanin (1-16, Y9A) (peptide)
[1]
  calcium assay EC50 (peptide on WT receptor; HEK293/Gα16 cells): > 10000 nM
[2]
  calcium assay EC50 (peptide on WT receptor; HEK293/Gα16 cells): > 10000 nM
[3]
  Ki: 2880 nM and 2850 nM and 1690 nM
[4]
  Ki: > 100000 nM

## galanin (full length, unlabeled) (peptide)
[2]
  calcium assay EC50 (peptide on WT receptor; HEK293/Gα16 cells): 8.27 nM and 11.6 nM
[5]
  calcium assay EC50 (galanin; HEK293/Gα16 cells): 35.3 nM and 27.2 nM and 64.9 nM

## spexin (mature, 14 amino acids) (peptide)
[6]
  calcium assay EC50 (spexin): 327 nM and 178 nM and 81.4 nM

## GWTLNSAGYLLGP (numbers count on: the mature protein) [Gal (1-13)]
[7]
  Ki: 23.5 nM
[8]
  Ki: 356 nM

## WTLNSAGYLLGPHAV (numbers count on: the mature protein) [Gal (2-16)]
[7]
  Ki: 49.9 nM
[8]
  Ki: > 10000 nM

## GWTLNSAGALLGPHAV (numbers count on: the mature protein) [Gal (1-16, Y9A)]
[7]
  Ki: > 100000 nM
[8]
  Ki: 2480 nM
